From article PMC2529310, “An amphioxus orthologue of the estrogen receptor that does not bind estradiol: Insights into estrogen receptor evolution”

Molecular target: T1, amphioxus ER (amphiER) (Branchiostoma floridae, UniProt B3V8B7 1-705)
T1 sequence: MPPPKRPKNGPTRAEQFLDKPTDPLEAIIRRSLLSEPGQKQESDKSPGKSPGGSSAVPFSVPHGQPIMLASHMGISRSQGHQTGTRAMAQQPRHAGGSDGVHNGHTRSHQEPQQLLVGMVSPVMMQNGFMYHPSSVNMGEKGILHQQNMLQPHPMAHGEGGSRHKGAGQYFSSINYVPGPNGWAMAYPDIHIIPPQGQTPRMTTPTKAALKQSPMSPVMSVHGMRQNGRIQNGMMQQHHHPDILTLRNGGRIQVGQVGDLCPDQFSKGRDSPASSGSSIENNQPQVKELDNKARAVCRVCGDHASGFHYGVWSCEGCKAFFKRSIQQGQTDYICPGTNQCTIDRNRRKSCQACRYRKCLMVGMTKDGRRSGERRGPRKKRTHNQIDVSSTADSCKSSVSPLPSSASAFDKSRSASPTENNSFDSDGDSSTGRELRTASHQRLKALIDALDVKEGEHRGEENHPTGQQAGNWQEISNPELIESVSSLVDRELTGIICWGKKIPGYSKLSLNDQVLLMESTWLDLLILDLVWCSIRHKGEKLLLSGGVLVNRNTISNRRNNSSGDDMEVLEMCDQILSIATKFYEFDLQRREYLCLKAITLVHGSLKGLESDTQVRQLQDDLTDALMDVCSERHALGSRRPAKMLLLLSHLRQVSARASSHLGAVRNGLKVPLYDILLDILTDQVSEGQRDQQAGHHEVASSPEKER
Assay: EMSA; EMSA as previously described (ref 93); buffer, salt, pH and temperature not given; in vitro translated proteins in reticulocyte lysate; 10- and 100-fold molar excess of competitors
Settings: protein: ivt; chain copies: 2; label: 32P; blunt (only one strand printed; 30 bp stated; strand is nearly self-complementary)

B1: consensus ERE (dsDNA)
DNA 1: CGGGCCGAGGTCACAGTGACCTCGGCCCGT
DNA 2: ACGGGCCGAGGTCACTGTGACCTCGGCCCG
  binding result: binds
